These results are taken from PMC2583301.

pKd: −log10 of the molar value.

What is called stoichiometry N is the number of molecules, sites or subunits per partner or assembly. By pKd is commonly meant the negative decadic logarithm of the Kd, by convention in mol/L. Low readings indicate a large Kd, high ones a small Kd.

Assay [1] deals with H2A refolded in the absence of H2B (Xenopus laevis) (UniProt P06897). The assay is described as follows: AUC.
The target of assay [2] is yNap1 C200A/C249A/C272A labelled with Alexa dye at Cys-414 (yNap1m*) (yeast) (UniProt P25293). In words: other fluorescence titration.
Chain of yNap1 C200A/C249A/C272A labelled with Alexa dye at Cys-414 (yNap1m*) (yeast) (P25293 whole entry C200A/C249A/C272A): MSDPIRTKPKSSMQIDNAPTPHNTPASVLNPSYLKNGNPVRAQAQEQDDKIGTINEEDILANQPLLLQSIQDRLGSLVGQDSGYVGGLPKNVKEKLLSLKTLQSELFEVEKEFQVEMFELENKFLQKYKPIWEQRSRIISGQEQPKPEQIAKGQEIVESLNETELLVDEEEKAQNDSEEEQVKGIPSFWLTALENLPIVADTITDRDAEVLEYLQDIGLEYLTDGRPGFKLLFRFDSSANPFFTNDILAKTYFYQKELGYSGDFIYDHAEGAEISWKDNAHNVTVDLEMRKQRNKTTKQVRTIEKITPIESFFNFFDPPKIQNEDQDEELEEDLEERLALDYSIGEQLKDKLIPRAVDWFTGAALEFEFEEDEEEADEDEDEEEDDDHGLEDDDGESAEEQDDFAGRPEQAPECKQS
The target of assay [3] is H2A/H2B(T112C) dimer, H2B labelled with Alexa dye (Xenopus laevis) (UniProt P06897). The assay is described as follows: other fluorescence titration.

Chain of yeast nucleosome assembly protein 1 (yNap1), wild type (P25293 whole entry): as the sequence (P25293 whole entry C200A/C249A/C272A) above, with A200C, A249C, A272C counted along it

On to “H2A refolded in the absence of H2B (from UniProt P06897 1-130) (natural protein)”, for which the stoichiometry N in assay [1] came out at 2.

“H2A/H2B dimer (major type, wild type) (from UniProt P06897;P02281) (complex)” had a stoichiometry N (H2A/H2B dimer per yNap1 monomer) in assay [2] of 1.

The substance “Tailless H2A/H2B dimer (from UniProt P06897 15-119) (complex)” showed a pKd in assay [2] of 8.68.

On to “yeast nucleosome assembly protein 1 (yNap1), wild type (from UniProt P25293 1-417) (natural protein)”, for which, in assay [3], the pKd was 8.89 and the Kd app (yNap1 counted as dimer) came to 0.7 nM.
